Assay results from paper PMC6097932 (Molecular cell, 2018).

Target: the molecule itself
Test: SEC

B1: FANCA-WT (natural protein, human, UniProt O15360 1-1455, looked up)
chain: MSDSWVPNSASGQDPGGRRRAWAELLAGRVKREKYNPERAQKLKESAVRLLRSHQDLNALLLEVEGPLCKKLSLSKVIDCDSSEAYANHSSSFIGSALQDQASRLGVPVGILSAGMVASSVGQICTAPAETSHPVLLTVEQRKKLSSLLEFAQYLLAHSMFSRLSFCQELWKIQSSLLLEAVWHLHVQGIVSLQELLESHPDMHAVGSWLFRNLCCLCEQMEASCQHADVARAMLSDFVQMFVLRGFQKNSDLRRTVEPEKMPQVTVDVLQRMLIFALDALAAGVQEESSTHKIVRCWFGVFSGHTLGSVISTDPLKRFFSHTLTQILTHSPVLKASDAVQMQREWSFARTHPLLTSLYRRLFVMLSAEELVGHLQEVLETQEVHWQRVLSFVSALVVCFPEAQQLLEDWVARLMAQAFESCQLDSMVTAFLVVRQAALEGPSAFLSYADWFKASFGSTRGYHGCSKKALVFLFTFLSELVPFESPRYLQVHILHPPLVPGKYRSLLTDYISLAKTRLADLKVSIENMGLYEDLSSAGDITEPHSQALQDVEKAIMVFEHTGNIPVTVMEASIFRRPYYVSHFLPALLTPRVLPKVPDSRVAFIESLKRADKIPPSLYSTYCQACSAAEEKPEDAALGVRAEPNSAEEPLGQLTAALGELRASMTDPSQRDVISAQVAVISERLRAVLGHNEDDSSVEISKIQLSINTPRLEPREHMAVDLLLTSFCQNLMAASSVAPPERQGPWAALFVRTMCGRVLPAVLTRLCQLLRHQGPSLSAPHVLGLAALAVHLGESRSALPEVDVGPPAPGAGLPVPALFDSLLTCRTRDSLFFCLKFCTAAISYSLCKFSSQSRDTLCSCLSPGLIKKFQFLMFRLFSEARQPLSEEDVASLSWRPLHLPSADWQRAALSLWTHRTFREVLKEEDVHLTYQDWLHLELEIQPEADALSDTERQDFHQWAIHEHFLPESSASGGCDGDLQAACTILVNALMDFHQSSRSYDHSENSDLVFGGRTGNEDIISRLQEMVADLELQQDLIVPLGHTPSQEHFLFEIFRRRLQALTSGWSVAASLQRQRELLMYKRILLRLPSSVLCGSSFQAEQPITARCEQFFHLVNSEMRNFCSHGGALTQDITAHFFRGLLNACLRSRDPSLMVDFILAKCQTKCPLILTSALVWWPSLEPVLLCRWRRHCQSPLPRELQKLQEGRQFASDFLSPEAASPAPNPDWLSAAALHFAIQQVREENIRKQLKKLDCEREELLVFLFFFSLMGLLSSHLTSNSTTDLPKAFHVCAAILECLEKRKISWLALFQLTESDLRLGRLLLRVAPDQHTRLLPFAFYSLLSYFHEDAAIREEAFLHVAVDMYLKLVQLFVAGDTSTVSPPAGRSLELKGQGNPVELITKARLFLLQLIPRCPKKSFSHVAELLADRGDCDPEVSAALQSRQQAAPDADLSQEPHLF
- stoichiometry N: 2
